This note sets out measurements from publication PMC7961821, “Comparing Ligninolytic Capabilities of Bacterial and Fungal Dye-Decolorizing Peroxidases and Class-II Peroxidase-Catalases” (International Journal of Molecular Sciences, 2021).

Experiment in all cases: purified protein
Substrate in data set [1]: COc1ccc(C(O)C(CO)Oc2ccccc2OC)cc1OC
It is filed as biochemical, Auricularia auricula-judae. The conditions noted are these: 1 mM H2O2, 100 mM tartrate, pH 3, 25 °C.

Substrate in data set [2]: Nc1c(S(=O)(=O)O)cc(Nc2cccc(S(=O)(=O)CCOS(=O)(=O)O)c2)c2c1C(=O)c1ccccc1C2=O
The conditions noted are these: 1 mM H2O2, optimal pH (not given for RB19), 25 °C.

Substrate in data set [3]: COc1cccc(OC)c1O
Substrate in data set [4]: COc1cc(C(O)C(CO)Oc2ccccc2OC)ccc1O
The conditions noted are these: 1 mM H2O2, 100 mM tartrate, pH 3, 25 °C, pH 3.0.

Substrate in data set [5]: CCn1c(=NN=c2sc3cc(S(=O)(=O)O)ccc3n2CC)sc2cc(S(=O)(=O)O)ccc21
Format: biochemical, Amycolatopsis sp. ATCC 39116. The conditions noted are these: 1 mM H2O2, pH 5, 25 °C.

Substrate in data set [6]: COc1ccc(C(O)C(CO)Oc2ccccc2OC)cc1OC
It is filed as biochemical, Pleurotus eryngii. To be noted: 1 mM H2O2, 100 mM tartrate, pH 3, 25 °C.

Substrate in data set [7]: CCn1c(=NN=c2sc3cc(S(=O)(=O)O)ccc3n2CC)sc2cc(S(=O)(=O)O)ccc21
Format: biochemical, Thermomonospora curvata. To be noted: 1 mM H2O2, pH 3, 25 °C.

Substrate in data set [8]: COc1ccc(C(O)C(CO)Oc2ccccc2OC)cc1OC
Format: biochemical, Phanerodontia chrysosporium. The conditions noted are these: 1 mM H2O2, 100 mM tartrate, pH 3, 25 °C.

B1: AauDyP (Auricularia auricula-judae) (protein)
chain: ATSLNTDDIQGDILVGMHKQKQLFYFFAINDPATFKTHLASDIAPVVASVTQLSNVATQPLVALNIAFSNTGLLALGVTDNLGDSLFANGQAKDATSFKESTSSWVPQFAGTGIHGVIILASDTTDLIDQQVASIESTFGSSISKLYSLSASIRPGNEAGHEMFGFLDGIAQPAINGFNTPLPGQNIVDAGVIITGATNDPITRPSWAVGGSFLAFRQLEQLVPEFNKYLLDNAPAGSGSLQARADLLGARMVGRWKSGAPIDLTPTADDPALGADAQRNNNFTYSHAGFDLGSDQSHCPFSAHIRKTRPRADLGGSLTPPNLSAGANSIMRSGIPYGPEVTSAESASNTTTQERGLAFVAYQAQLSQGFHFLQQTWADNANFPPGKTPATVGLDPIIGQNNGQPRVVNGLLPSNSSASLSIPQFVVSHGGEYFFSPPISAIGGRLSA
notes: heme enzyme
The term Km denotes the concentration of substrate that gives half-maximal velocity. As usually defined, the kcat is the maximal rate divided by the concentration of active sites. One may read the kcat/Km as the turnover number divided by the Michaelis constant. As to B1, in “purified protein [1]”, the Km turned out to be 448 ± 59 µM, the kcat worked out at 0.3 ± 0.01 s⁻¹ and the kcat/Km stood at 700 ± 100 M⁻¹ s⁻¹.

B2: AspDyP2 (Amycolatopsis sp. ATCC 39116) (protein)
chain: MPVDLSTTLSWKSATGEAATMLDELQPNILKAHVRDRLTVLFLGFGDAAEARTFLNGLSGLMKSARTHLQEVEAHKLTKAVGTPYLGVGLTAHGYATLGVTAPADPSFTAGAKAAVEKLADPAVTEWEGHYQQTIDAVLLLGDATAGPVRTLRRQVEALRPASVTVVGEESGLGLANANGDGIEHFGYVDGRSQPLFLTEDVDAERDTTDGVNDWDPSAPLEQVLVPDPAAPDPTVHFGSYFVFRKLEQNVRLFKEAERDLAHDLGLRGEDRERAGAMLVGRFEDGTPLTAQSAPGSHHPVGNDFSYDSDKLGQKCPFHAHIRKTNPRGSGGAEAPEEERKHLMARRGQTYGRRHDDPNADLPPRLRPAKDVGLLFMAFNSNLGNQFEFTQQIWANNPAFPFPPDGSQPGLDPVIGQGARAPQKYAPEWGHNNVAEATDPIPQAVTMKGGEYFFMPSLAFLRSL
notes: mature protein, codon-optimised, N-terminal His tag (pET28a), soluble from E. coli BL21(DE3) pLysS, heme enzyme
For B2, the Km stood at 20 ± 4 µM in the data set “purified protein [2]”; 177 ± 34 µM in the data set “purified protein [3]” (1 mM H2O2, pH 4, 25 °C, pH 4.0); 179 ± 39 µM in “purified protein [4]”; 165 ± 18 µM in “purified protein [5]”. Also, the kcat in the data set “purified protein [2]” came out at 26.0 ± 2.0 s⁻¹; in “purified protein [3]” (1 mM H2O2, pH 4, 25 °C, pH 4.0) it was 94.0 ± 4.6 s⁻¹; in “purified protein [4]” it was 12.0 ± 1.2 s⁻¹; in the data set “purified protein [5]”, 30.0 ± 0.9 s⁻¹. The kcat/Km is 1.3e+06 ± 200000 M⁻¹ s⁻¹ in “purified protein [2]”; 530000 ± 80000 M⁻¹ s⁻¹ in “purified protein [3]” (1 mM H2O2, pH 4, 25 °C, pH 4.0); 67000 ± 8500 M⁻¹ s⁻¹ in the data set “purified protein [4]”; 180000 ± 20000 M⁻¹ s⁻¹ in “purified protein [5]”.

B3: PerVPL (Pleurotus eryngii) (protein)
chain: ATCDDGRTTANAACCILFPILDDIQENLFDGAQCGEEVHESLRLTFHDAIGFSPTLGGGGADGSIIAFDTIETNFPANAGIDEIVSAQKPFVAKHNISAGDFIQFAGAVGVSNCPGGVRIPFFLGRPDAVAASPDHLVPEPFDSVDSILARMGDAGFSPVEVVWLLASHSIAAADKVDPSIPGTPFDSTPGVFDSQFFIETQLKGRLFPGTADNKGEAQSPLQGEIRLQSDHLLARDPQTACEWQSMVNNQPKIQNRFAATMSKMALLGQDKTKLIDCSDVIPTPPALVGAAHLPAGFSLSDVEQACAATPFPALTADPGPVTSVPPVPGS
notes: heme enzyme
Take B3: in “purified protein [6]”, the Km was found to be 659 ± 80 µM, the kcat was 1.2 ± 0.1 s⁻¹ and the kcat/Km is 1800 ± 100 M⁻¹ s⁻¹. In addition, in the data set “purified protein [4]”, the Km worked out at 206 ± 17 µM, the turnover number (kcat) was 2.7 ± 0.1 s⁻¹ and the kcat/Km was found to be 13200 ± 700 M⁻¹ s⁻¹.

B4: TcuDyP (Thermomonospora curvata DSM 43183) (protein)
chain: SEERAAGARPSATQTTGTATEPFHGPHQAGIATPPQAHAVFLGLDLRKGTGRKELGRLMRLLTDDARRLTQGRPALADPEPDLAPLPSRLTFTFGFGPGLFKAAGLEKQRPEGLRPLPPFKVDRLEDRWSGGDLLVQICCDDPITLAHALRMTVKDARAFTRVRWVQRGFRRSPGVQSSGATQRNLMGQLDGTVNPVPGTADFDQAVWVQDGPEWLRGGTTLVLRRIRMELEKWDEADPAGKEFAVGRRLTSGAPLTGRHEHDEPDFDAVDSAGFPVIAENAHIRLAHVDSPRLRMLRRPYNYDEGLTADGRSDAGLLFAAYQADIDRQFIPVQRRLDEGGDLLNLWTTPIGSAVFAIPPGCDENGWIGQGLLG
notes: mature protein without signal peptide, codon-optimised, N-terminal His tag (pET28a), soluble from E. coli BL21(DE3) pLysS, heme enzyme
On to B4, for which the Km in the data set “purified protein [2]” is reported as 7 ± 2 µM; in “purified protein [3]” (1 mM H2O2, pH 3, 25 °C, pH 3.0), 2 ± 0.3 µM; in “purified protein [4]” it was 80 ± 16 µM; in the data set “purified protein [7]” it was 309 ± 95 µM. Besides, the kcat was 1.3 ± 0.1 s⁻¹ in the data set “purified protein [2]”; 2.7 ± 0.4 s⁻¹ in “purified protein [3]” (1 mM H2O2, pH 3, 25 °C, pH 3.0); 1.1 ± 0.1 s⁻¹ in the data set “purified protein [4]”; 53.0 ± 6.1 s⁻¹ in the data set “purified protein [7]”. The catalytic efficiency (kcat/Km) worked out at 200000 ± 40000 M⁻¹ s⁻¹ in “purified protein [2]”; 1.3e+06 ± 100000 M⁻¹ s⁻¹ in “purified protein [3]” (1 mM H2O2, pH 3, 25 °C, pH 3.0); 14200 ± 1800 M⁻¹ s⁻¹ in “purified protein [4]”; 170000 ± 30000 M⁻¹ s⁻¹ in “purified protein [7]”.

B5: PchLiPA (Phanerodontia chrysosporium) (protein)
chain: ATCSNGKTVGDASCCAWFDVLDDIQQNLFHGGQCGAEAHESIRLVFHDSIAISPAMEAQGKFGGGGADGSIMIFDDIETAFHPNIGLDEIVKLQKPFVQKHGVTPGDFIAFAGRVALSNCPGAPQMNFFTGRAPATQPAPDGLVPEPFHTVDQIINRVNDAGEFDELELVWMLSAHSVAAVNDVDPTVQGLPFDSTPGIFDSQFFVETQLRGTAFPGSGGNQGEVESPLPGEIRIQSDHTIARDSRTACEWQSFVNNQSKLVDDFQFIFLALTQLGQDPNAMTDCSDVIPQSKPIPGNLPFSFFPAGKTIKDVEQACAETPFPTLTTLPGPETSVQRIPPPPGA
notes: heme enzyme
For the protein B5, in “purified protein [8]”, the Michaelis constant (Km) was determined as 88 ± 3 µM, the kcat turned out to be 1.3 ± 0.2 s⁻¹ and the kcat/Km was 14700 ± 400 M⁻¹ s⁻¹. For the same protein, in “purified protein [4]”, the Km is 208 ± 41 µM, the turnover number (kcat) is 1.3 ± 0.1 s⁻¹ and the kcat/Km stood at 6500 ± 700 M⁻¹ s⁻¹.
